The data set deals with MS2 coat protein. In words: apparent KD of MS2 coat protein; designed switch direction (-1 OFF switch, 1 ON switch): 1; higher = weaker reporter binding. In short, it runs like this: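 SNAP-549-labelled MS2 coat protein was titrated, doubling from 0.7 or 1.5 nM to 3 µM, over designed RNA switches transcribed on Illumina chips by stalled E. coli RNA polymerase. Runs were done without input, with 200 uM small-molecule ligand, or with an oligonucleotide input. Apparent KD is the per-design median over clusters of curve-fitted normalised fluorescence.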

The mark [1] stands for this setting: input ligand: microRNA oligo, concentration not stated.
The mark [2] stands for this setting: Eterna round: R95, input ligand: FMN 200 uM.
Setting [3] is: Eterna round: R95, input ligand: microRNA oligo, concentration not stated.
Where [4] appears, read: Eterna round: R95, input ligand: none.

With “GGAUGACGGACAGGAUAUUGAUUCUAAUGGUUUCAAGAAGGGUCUUCGAUAUAAACGACCAGUUACAUGAGGAUCACCCAUGUU [JR_SSNG1_Sub033] (Eterna round: R96, puzzle: Same State NG 1)”, the “apparent KD of MS2 coat protein” value worked out at 25.9 nM (input ligand: FMN 200 uM), 66 nM under setting [1] and 45 nM (input ligand: none).
“GGAUGAUAAAUAGGAUAUUAAUUGUAAUUAGGUUAAGAAGGAUUAAUGAUUUAAACGACCAGUUACAUGAGGAUCACCCAUGUU [JR_SSNG1_Sub088] (Eterna round: R96, puzzle: Same State NG 1)”: the “apparent KD of MS2 coat protein” value under setting [1] was found to be 108 nM.
In the case of “GGAUGAUAGACAGGAUAUUGAUUGUAAUUAGGACAAGAAGGGUCAAUGAUUUAAACGACCAGUUACAUGAGGAUCACCCAUGUU [JR_SSNG1_Sub026] (Eterna round: R96, puzzle: Same State NG 1)”, the “apparent KD of MS2 coat protein” value (input ligand: FMN 200 uM) worked out at 55.7 nM, the “apparent KD of MS2 coat protein” value under setting [1] worked out at 34 nM and the “apparent KD of MS2 coat protein” value (input ligand: none) turned out to be 55.3 nM.
The matching figures for “GGCCAGAGUCAAGGAUAUGCUACCGUUUCGGUAGCAGAAGGUGAUCACAUGAGGAUCACCCAUGUAUACGCUGGGAAGCGGGCC [JL SSNG1 3.65] (Eterna round: R96, puzzle: Same State NG 1)”: 163 nM, 155 nM and 119 nM.
“GGCGUAUAAACAUGAGGAUCACCCAUGUUGCGGAGACGCAAUGAGGAUAUCGAUGGGUUUCCCGUCGAGAAGGCGUGGGUCGCC [JL SSNG3 3.95] (Eterna round: R96, puzzle: Same State NG 3)”: the “apparent KD of MS2 coat protein” value worked out at 22.3 nM (input ligand: FMN 200 uM), 24.6 nM under setting [1] and 40.2 nM (input ligand: none).
For “GGGAGACCUCAAGGAUAUGCUACCGUUUCGGUAGCAGAAGGUGAUCACAUGAGGAUCACCCAUGUAUGCAUGCGUGAGCGUGCU [JL SSNG1 3.58] (Eterna round: R96, puzzle: Same State NG 1)”, the “apparent KD of MS2 coat protein” value (input ligand: FMN 200 uM) was 79.4 nM, the “apparent KD of MS2 coat protein” value under setting [1] came to 11.6 nM and the “apparent KD of MS2 coat protein” value (input ligand: none) was 67.8 nM.
For the sequence “GGUACAAAUACAGGAUAUGCUAUCCUUUGGGUAGCAGAAGGGUGGUAACAUGAGGAUCACCCAUGUGUGCCAGGGCGUGAGCCC [JL SSNG1 1.98] (Eterna round: R96, puzzle: Same State NG 1)”, the “apparent KD of MS2 coat protein” value (input ligand: FMN 200 uM) amounted to 387 nM, the “apparent KD of MS2 coat protein” value under setting [1] is 206 nM and the “apparent KD of MS2 coat protein” value (input ligand: none) was 657 nM.
The matching figures for “GGUAGGUUACUACCAAACAUGAGGAUCACCCAUGUAAGUGGGAAGGAUAUGGUACCUAUUUGGUACCAGAAGGUCCAAUUAAUU [Fiskers NG3ss - 3] (Eterna round: R96, puzzle: Same State NG 3)”: 228 nM, 111 nM and 720 nM.
The like results for “GGUAGGUUACUACCAAACAUGAGGAUCACCCAUGUAAGUGGGAAGGAUAUGGUACCUUUUAGGUACCAGAAGGUCCAUAUAAUU [JL Fiskers NG3ss - 2 mod 6] (Eterna round: R96, puzzle: Same State NG 3)” were, in that order, 177 nM, 2450 nM and 3220 nM.
For the sequence “GGUAGGUUACUACCAACACAUGAGGAUCACCCAUGUUUUGGGAAGGAUAUGGUACCUAUUUGGUACCAGAAGGUCCAGUUAAUG [salish99_SSNG3_r04_701] (Eterna round: R96, puzzle: Same State NG 3)”, the “apparent KD of MS2 coat protein” value is, setting by setting: (input ligand: FMN 200 uM) 87 nM; under setting [1], 161 nM; (input ligand: none) 122 nM.
The matching figures for “GGUAGGUUACUACCAACACAUGAGGAUCACCCAUGUUUUGGGAAGGAUAUGGUACCUAUUUGGUACCAGAAGGUCCAGUUAAUU [Fiskers NG3ss - 17] (Eterna round: R96, puzzle: Same State NG 3)”: 47.4 nM, 66.6 nM and 69.5 nM.
Turning to “GGUAGGUUACUACCAAUACAUGAGGAUCACCCAUGUUAUCAUGAGGAUAUGGUACCUAUUUGGUACCAGAAGGCAUGUAUAAUU [Fiskers NG3ss - 19] (Eterna round: R96, puzzle: Same State NG 3)”, the “apparent KD of MS2 coat protein” value reads like this: (input ligand: FMN 200 uM) 43.6 nM; under setting [1], 62.6 nM; (input ligand: none) 60.5 nM.
The matching figures for “GGUAGGUUACUACCAAUCUACAUGAGGAUCACCCAUGUGUAGGAGGAUAUGGUACCUAUUUGGUACCAGAAGGCCUAAUUAAUU [Fiskers NG3ss - 9] (Eterna round: R96, puzzle: Same State NG 3)”: 117 nM, 96.7 nM and 111 nM.
The like results for “GGUAUCGGCACAGGAUAUGCUAUCCUUUGGGUAGCAGAAGGGUGGACAUGAGGAUCACCCAUGUAGGUGCCAGGGCGUGAGCCC [JL SSNG1 1.87] (Eterna round: R96, puzzle: Same State NG 1)” were, in that order, 2490 nM, 26.3 nM and 3550 nM.
“GGUCCAGCCUGAGCUGGACAAGAGCAUGUACAUGAGGAUCACCCAUGUCAUGUACAAGCUUUUUGCUCGUCUUAAAA [JL mod - D87 - 2] (puzzle: Sensor for hsa-mir-208a)”: the “apparent KD of MS2 coat protein” value runs as follows: under setting [2], 433 nM; under setting [3], 14.5 nM; under setting [4], 540 nM.
Take “GGUCCAGCGAGAGCUGGACAAAAGCAUGUACAUGAGGAUCACCCAUGUCAUGUACAAGCUUUUUGCUCGUCUUAAAA [Mat - Sensor - JL mod - D88] (Eterna round: R96, puzzle: Sensor for hsa-mir-208a)”: the “apparent KD of MS2 coat protein” value runs as follows: (input ligand: FMN 200 uM) 556 nM; under setting [1], 12.9 nM; (input ligand: none) 486 nM.
The matching figures for “GGUCCAUCAUGAGGAUAUGGCACCUUAUUGGUGCCAGAAGGCAUGUAAAUUAUAAUAAAACAUGAGGAUCACCCAUGUUGGACC [Eli NG1ss - 97] (Eterna round: R96, puzzle: Same State NG 1)”: 857 nM, 19.5 nM and 78.4 nM.
The like results for “GGUCGGAACCACAUGAGGAUCACCCAUGUUCCGGAAACGGCGCAGGAUAUCUGUCCGAAAAGGUCAGAGAAGGGUGAACCGACC [Fiskers NG3ss - 78] (Eterna round: R96, puzzle: Same State NG 3)” were, in that order, 462 nM, 314 nM and 236 nM.
The like results for “GGUCGGACUCACAUGAGGAUCACCCAUGUUGCGGAAACGCGACAGGAUAUCUGUCCGAAAAGGUCAGAGAAGGGUCAACCGACC [Fiskers NG3ss - 58] (Eterna round: R96, puzzle: Same State NG 3)” were, in that order, 853 nM, 431 nM and 504 nM.
On to “GGUGCAAUUAACGCCUACAUGAGGAUCACCCAUGUAUGUAGGCAGGAUAUCGUUUGCAAAGCAAACGAGAAGGGCUAUAGUACC [Mat - Same State NG 3 - JL Mod - D43] (Eterna round: R96, puzzle: Same State NG 3)”, for which the “apparent KD of MS2 coat protein” value runs as follows: (input ligand: FMN 200 uM) 66.9 nM; under setting [1], 256 nM; (input ligand: none) 188 nM.
For the sequence “GGUGCGAAUAAAGCCUACAUGAGGAUCACCCAUGUAUGUAGGCAGGAUAUCGUAUGCAAAGCAUACGAGAAGGGCUGUCGCACC [Mat - Same State NG 3 - JL Mod - D47] (Eterna round: R96, puzzle: Same State NG 3)”, the “apparent KD of MS2 coat protein” value stood at 30.1 nM (input ligand: FMN 200 uM), 56.9 nM under setting [1] and 85.8 nM (input ligand: none).
The matching figures for “GGUGGGUUACUACCAACACAUGAGGAUCACCCAUGUUUUGGGAAGGAUAUGGUACCUAUUUGGUACCAGAAGGUCCAGUUGGUG [salish99_SSNG3_r04_703] (Eterna round: R96, puzzle: Same State NG 3)”: 49.8 nM, 79.8 nM and 125 nM.
In the case of “GGUUUAGUCAGGUGCAGUUGCACCUGAAAACAUGAGGAUCACCCAUGUUUGGGACAAGCUUUGCUCCUCGUCUUGCA [Orinen] (puzzle: Sensor for hsa-mir-208a)”, the “apparent KD of MS2 coat protein” value was found to be 341 nM under setting [2], 70.6 nM under setting [3] and 545 nM under setting [4].
The matching figures for “GUAAAACAUGAGGAUCACCCAUGUAAUAAUAUGGGAGGAUAUGCGAAUUUAAUUAUUUAAGCAGAAGGCCUAAAUG [Mat - Same State 1 - D99] (puzzle: Same State 1)”: 21.2 nM, 172 nM and 149 nM.
Take “GUAAUAAUGUAAGGAUAUACAUGAGGAUUUCUCGUAGAAGGUACAAGACAUGAGGAUCACCCAUGUGUCGCUCAGAAGAGCGUA [Mat - Same State NG 1 - JL mod - D16] (Eterna round: R96, puzzle: Same State NG 1)”: the “apparent KD of MS2 coat protein” value runs as follows: (input ligand: FMN 200 uM) 279 nM; under setting [1], 158 nM; (input ligand: none) 463 nM.
The like results for “GUAAUCGUUAUAGGAUAUCAUGAGGAUUACCCAUGAGAAGGGUGAUCCCGAUCCAUAUUCAGAAAAUGAAUGUGGAUAGAUUGC [Omei NG1 A] (Eterna round: R96, puzzle: Same State NG 1)” were, in that order, 46.8 nM, 20.6 nM and 55.4 nM.
